94 variants from the supplement of paper PMC10567573 can be followed below.

Sequences and labels used below:
B1: KRT13 (parent)
chain: YGGGLGGGFGGGFAGGFVDFGACD
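Note: lentivirally expressed fusions sorted by FACS into six bins by GFP to DsRed ratio, PSI derived from sequencing read proportions per bin multiplied by bin number.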

Variants of B1 are the subject of the data set. In words: protein stability index of a GFP-peptide fusion (GPS, HEK-293T) (PSI 1-6); higher = more stable. Particulars: c terminus: a fixed tail appended.
In the case of YGGGLGGGEGGGFAGGFVDFGACD [F9E], the protein stability index amounted to 2.65.
With YGGGLGGGTGGGFAGGFVDFGACD [F9T] the figure was 2.28; with YGGGLGGGAGGGFAGGFVDFGACD [F9A], 1.68; with YGGGLGGGIGGGFAGGFVDFGACD [F9I], 1.49.
For the variant YGGGLGGGGGGGFAGGFVDFGACD [F9G], the protein stability index came to 1.87.
Then YGGGLGGGSGGGFAGGFVDFGACD [F9S], with 1.85; and YGGGLGGGHGGGFAGGFVDFGACD [F9H], with 2.5; and YGGGLGGGKGGGFAGGFVDFGACD [F9K], with 1.64.
As to YGGGLGGGNGGGFAGGFVDFGACD [F9N], the protein stability index was found to be 2.
With YGGGLGGGQGGGFAGGFVDFGACD [F9Q] the figure was 2.1; with YGGGLGGGPGGGFAGGFVDFGACD [F9P], 1.75.
As for YGGGLGGGDGGGFAGGFVDFGACD [F9D], the protein stability index was found to be 2.46.
As to YGGGLGGGYGGGFAGGFVDFGACD [F9Y], the protein stability index was determined as 1.69.
With YGGGLGGGLGGGFAGGFVDFGACD [F9L] the figure was 1.76; with YGGGLGGGMGGGFAGGFVDFGACD [F9M], 1.45; with YGGGLGGGRGGGFAGGFVDFGACD [F9R], 1.69.
With YGGGLGGGVGGGFAGGFVDFGACD [F9V], the protein stability index was determined as 1.94.
For the variant YGGGLGGGCGGGFAGGFVDFGACD [F9C], the protein stability index turned out to be 1.79.
As to YGGGLGGGFGGGFAMGFVDFGACD [G15M], the protein stability index is 4.08.
For YGGGLGGGFGGGFATGFVDFGACD [G15T], the protein stability index is 1.61.
With YGGGLGGGFGGGFAIGFVDFGACD [G15I] the figure was 3.13; with YGGGLGGGFGGGFAHGFVDFGACD [G15H], 1.65; with YGGGLGGGFGGGFAYGFVDFGACD [G15Y], 1.67.
With YGGGLGGGFGGGFAWGFVDFGACD [G15W], the protein stability index was 1.58.
Regarding YGGGLGGGFGGGFAVGFVDFGACD [G15V], the protein stability index was 3.52.
Then YGGGLGGGFGGGFASGFVDFGACD [G15S], with 1.77.
In the case of YGGGLGGGFGGGFAAGFVDFGACD [G15A], the protein stability index came to 1.2.
On to YGGGLGGGFGGGFADGFVDFGACD [G15D], for which the protein stability index came out at 2.03.
Take YGGGLGGGFGGGFAKGFVDFGACD [G15K]: the protein stability index worked out at 1.18.
For the variant YGGGLGGGFGGGFAQGFVDFGACD [G15Q], the protein stability index was 2.07.
Consider YGGGLGGGFGGGFAPGFVDFGACD [G15P], for which the protein stability index worked out at 2.71.
Regarding YGGGLGGGFGGGFARGFVDFGACD [G15R], the protein stability index amounted to 2.42.
Then YGGGLGGGFGGGFANGFVDFGACD [G15N], with 2.55.
Then YGGGLGGGFGGGFAEGFVDFGACD [G15E], with 1.89; and YGGGYGGGFGGGFAGGFVDFGACD [L5Y], with 2.79.
As for YGGGLRGGFGGGFAGGFVDFGACD [G6R], the protein stability index is 1.54.
Regarding YGGGLWGGFGGGFAGGFVDFGACD [G6W], the protein stability index came to 3.1.
Then YGGGLVGGFGGGFAGGFVDFGACD [G6V], with 2.12; and YGGGLMGGFGGGFAGGFVDFGACD [G6M], with 1.81; and YGGGLCGGFGGGFAGGFVDFGACD [G6C], with 2.27.
With YGGGLSGGFGGGFAGGFVDFGACD [G6S] the figure was 1.4; with YGGGLDGGFGGGFAGGFVDFGACD [G6D], 1.89; with YGGGLHGGFGGGFAGGFVDFGACD [G6H], 1.79.
With YGGGLYGGFGGGFAGGFVDFGACD [G6Y] the figure was 1; with YGGGLLGGFGGGFAGGFVDFGACD [G6L], 2.86.
As to YGGGLEGGFGGGFAGGFVDFGACD [G6E], the protein stability index was found to be 2.26.
In the case of YGGGLTGGFGGGFAGGFVDFGACD [G6T], the protein stability index turned out to be 2.19.
YGGGLNGGFGGGFAGGFVDFGACD [G6N]: the protein stability index was 1.65.
As to YGGGLAGGFGGGFAGGFVDFGACD [G6A], the protein stability index was found to be 2.4.
Consider YGGGLPGGFGGGFAGGFVDFGACD [G6P], for which the protein stability index turned out to be 3.58.
With YGGGLIGGFGGGFAGGFVDFGACD [G6I], the protein stability index came out at 3.11.
As for YGGGLFGGFGGGFAGGFVDFGACD [G6F], the protein stability index worked out at 1.68.
Take YGGGLKGGFGGGFAGGFVDFGACD [G6K]: the protein stability index came to 1.67.
Regarding YGGGLQGGFGGGFAGGFVDFGACD [G6Q], the protein stability index worked out at 2.38.
Then YGGGLGGPFGGGFAGGFVDFGACD [G8P], with 1.75; and YGGGLGGRFGGGFAGGFVDFGACD [G8R], with 1.67.
With YGGGLGGVFGGGFAGGFVDFGACD [G8V], the protein stability index was found to be 2.48.
On to YGGGLGGSFGGGFAGGFVDFGACD [G8S], for which the protein stability index was 2.72.
Then YGGGLGGWFGGGFAGGFVDFGACD [G8W], with 3.32; and YGGGLGGAFGGGFAGGFVDFGACD [G8A], with 1.93; and YGGGLGGEFGGGFAGGFVDFGACD [G8E], with 1.72.
On to YGGGLGGNFGGGFAGGFVDFGACD [G8N], for which the protein stability index is 1.78.
YGGGLGGQFGGGFAGGFVDFGACD [G8Q]: the protein stability index is 1.23.
With YGGGLGGHFGGGFAGGFVDFGACD [G8H], the protein stability index is 3.
As to YGGGLGGTFGGGFAGGFVDFGACD [G8T], the protein stability index came out at 1.77.
With YGGGLGGDFGGGFAGGFVDFGACD [G8D] the figure was 2.41; with YGGGLGGKFGGGFAGGFVDFGACD [G8K], 1.24; with YGGGLGGIFGGGFAGGFVDFGACD [G8I], 2.44.
Consider YGGGLGGCFGGGFAGGFVDFGACD [G8C], for which the protein stability index was determined as 1.26.
With YGGGLGGGFEGGFAGGFVDFGACD [G10E], the protein stability index was found to be 1.96.
YGGGLGGGFKGGFAGGFVDFGACD [G10K]: the protein stability index worked out at 1.53.
Turning to YGGGLGGGFDGGFAGGFVDFGACD [G10D], the protein stability index was 2.03.
Take YGGGLGGGFTGGFAGGFVDFGACD [G10T]: the protein stability index came out at 1.26.
In the case of YGGGLGGGFVGGFAGGFVDFGACD [G10V], the protein stability index is 1.93.
Then YGGGLGGGFPGGFAGGFVDFGACD [G10P], with 1.92.
For the variant YGGGLGGGFFGGFAGGFVDFGACD [G10F], the protein stability index is 2.02.
Consider YGGGLGGGFQGGFAGGFVDFGACD [G10Q], for which the protein stability index is 2.21.
Then YGGGLGGGFAGGFAGGFVDFGACD [G10A], with 2.01; and YGGGLGGGFMGGFAGGFVDFGACD [G10M], with 3.61; and YGGGLGGGFSGGFAGGFVDFGACD [G10S], with 2.15.
Take YGGGLGGGFNGGFAGGFVDFGACD [G10N]: the protein stability index worked out at 1.38.
Regarding YGGGLGGGFCGGFAGGFVDFGACD [G10C], the protein stability index stood at 4.
For YGGGLGGGFHGGFAGGFVDFGACD [G10H], the protein stability index worked out at 1.7.
With YGGGLGGGFWGGFAGGFVDFGACD [G10W] the figure was 3.23; with YGGGLGGGFIGGFAGGFVDFGACD [G10I], 1.58.
For the variant YGGGLGGGFRGGFAGGFVDFGACD [G10R], the protein stability index turned out to be 1.91.
For YGGGLGGGFYGGFAGGFVDFGACD [G10Y], the protein stability index turned out to be 3.74.
As for YGGGLGGGFGCGFAGGFVDFGACD [G11C], the protein stability index was determined as 1.56.
On to YGGGLGGGFGIGFAGGFVDFGACD [G11I], for which the protein stability index amounted to 3.54.
As to YGGGLGGGFGLGFAGGFVDFGACD [G11L], the protein stability index is 3.08.
Consider YGGGLGGGFGVGFAGGFVDFGACD [G11V], for which the protein stability index came out at 2.4.
On to YGGGLGGGFGEGFAGGFVDFGACD [G11E], for which the protein stability index was 2.12.
Consider YGGGLGGGFGQGFAGGFVDFGACD [G11Q], for which the protein stability index is 1.73.
Then YGGGLGGGFGNGFAGGFVDFGACD [G11N], with 2.43.
